Earlier results in PMC7563123.

Tests used:
[1] = target: Aβ1–40 Aβ1-40 (Homo sapiens) (UniProt P05067); assay: ligand binding assay
[2] = target: Aβ1–42 Aβ1-42 (Homo sapiens) (UniProt P05067); assay: ligand binding assay
Aβ1–42 Aβ1-42 (Homo sapiens), sequence (P05067 1-42): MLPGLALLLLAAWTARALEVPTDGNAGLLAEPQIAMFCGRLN

17β-HSD10, sequence (Q99714 2-261): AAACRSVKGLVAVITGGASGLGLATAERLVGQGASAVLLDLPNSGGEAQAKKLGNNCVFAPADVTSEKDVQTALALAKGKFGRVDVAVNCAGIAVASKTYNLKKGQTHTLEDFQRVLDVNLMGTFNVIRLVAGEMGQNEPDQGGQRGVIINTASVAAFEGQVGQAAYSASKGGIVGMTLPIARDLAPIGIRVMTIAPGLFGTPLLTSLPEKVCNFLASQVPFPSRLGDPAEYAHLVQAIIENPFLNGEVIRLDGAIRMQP
Aβ1–40 Aβ1-40 (Homo sapiens), sequence (P05067 1-40): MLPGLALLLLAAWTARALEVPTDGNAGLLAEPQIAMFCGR

Substance: 17β-HSD10 (from UniProt Q99714)
- Kd [1]: 38.4 nM
- Kd [2]: 55.8 nM
